From article PMC6813240, “Functional Differentiation of Duplicated Flavonoid 3-O-Glycosyltransferases in the Flavonol and Anthocyanin Biosynthesis of Freesia hybrida” (Frontiers in Plant Science, 2019)

Columns and labels:
purified protein = substrate: O=c1c(O)c(-c2ccc(O)cc2)oc2cc(O)cc(O)c12; experiment: purified protein; conditions: 10 mM UDP-glucose, 50 mM HEPES pH 8.0, 30°C, 2 min
[1] = substrate: O=c1c(O)c(-c2ccc(O)c(O)c2)oc2cc(O)cc(O)c12; experiment: HPLC glucosyltransferase assay; assay type: biochemical, Freesia hybrid cultivar; conditions: 10 mM UDP-glucose, 50 mM HEPES pH 8.0, 30°C, 2 min, acceptor 10-60 µM
[2] = acceptor 10-60 µM (Km lies far below this range)

B1: Fh3GT2 (Freesia hybrid cultivar) (protein)
chain: MGSSQPPTRRRHVAVIAFPFSSHPAALFTLARAMAAAAPGTTFSFLSFPGSVDSLSKIPCRPENLRLCHVADPTPPGAIPPEQRIGMFLAAAPAYLRAGIKAAEALDGGGVTCLVSDSLLWMTADVAEEKGVPWVAVWTGGTSALVVHVYTDRLRKFYGVVHGDAIHPRADELLDVNVVPGFSEHRVRDLPEGILWKVDSPFASLVDTMVSKFPRAVAVVANTIPGLDPGLDAAFASKFKNYLPIGPFTILSPLPSPQHDNECVAWLDRQAPASVAYVSFGTLAALPPSELTELANGLEASGVPFLWSMKNKEALPAGFLDRTRGKGLVVDWAPQASVLAHNAVGGFVTHCGWSSVMESVAAGVPMICRSVFGDQTMTAKMVCNAWKIGFGFSGGAITREEVVRGLRMVLRGEEGGREIRERSSELKSLAWREVKVEGRTVKNLNSLIEIING
notes: recombinant from E. coli BL21 (DE3), pET32a, N-terminal 6x His tag, Ni Sepharose purified
In the case of B1, the Km (purified protein; [2]) is reported as 0.13 ± 0.01 µM, the kcat (purified protein; [2]) is reported as 0.73 s⁻¹ and the kcat/Km (purified protein; [2]) is reported as 5.46e+06 M⁻¹ s⁻¹. For the same protein, the Km [1] was 16.62 ± 0.03 µM, the kcat [1] was 1.86 ± 0.0023 s⁻¹ and the kcat/Km [1] was 112000 M⁻¹ s⁻¹.

B2: Fh3GT1 (Freesia hybrid cultivar) (protein)
chain: MGSADRSHVALLAFPFGTHAAPLLSLGLNLASSAPHGTTFSFLSNRRPVSLPPNSAIKFYEIADGSDPEHEGHVHPEEEVRVFMEETPGNYKKALEAAVDRCGGQRVTCIVADAFLWFVGDIAAEFGVHWVPLWTGGPCSFLAHLYTDMLRNKIGTGKEADPDEDLQFLPGLSGFRVRDLPDDIVTGDLTGAFASLLHRMSIEIPRSAAAIAINTFEGLHPDIDADLASKFKKSLPIGPLNLLNPTLNQPDRFSCLAWLDKFEPHSVAYVSFGTLAALTEAELVELASGLEQSGVPFLWSLKEPGQLPAGFLDRTKDRGLVVPWVPQAEALKHVAVGASLSHCGWNSVMESVTSGVPMLCRPFLGDQTMNARAVSHVWKVGVTFENGTMTRANVAEAMKKVVVGEEGRKMRERAAAIREMAAGSVRPGGSSVQNFKALLDIVIAR
notes: as for B1
For B2, the Km (purified protein; acceptor 10-60 µM) was 45.38 ± 3.90 µM, the Km [1] was 96.38 ± 5.03 µM and the kcat [1] was 4.51 ± 0.039 s⁻¹. The kcat/Km [1] was 46900 M⁻¹ s⁻¹.
